Target: T1, C4b-binding protein (human, UniProt P04003 49-597; P20851 18-252)
T1 construct: In the AP-MS experiments it was followed by its alpha chain (C4BPA); also called C4BP; C4BPα; source: endogenous, pooled human plasma (AP-MS); bought: Complement Technology, purified human complement C4BP, catalog A109 (SPR, TX-MS, HDX-MS); copies: 7 +
T1 sequence (looked up) 1: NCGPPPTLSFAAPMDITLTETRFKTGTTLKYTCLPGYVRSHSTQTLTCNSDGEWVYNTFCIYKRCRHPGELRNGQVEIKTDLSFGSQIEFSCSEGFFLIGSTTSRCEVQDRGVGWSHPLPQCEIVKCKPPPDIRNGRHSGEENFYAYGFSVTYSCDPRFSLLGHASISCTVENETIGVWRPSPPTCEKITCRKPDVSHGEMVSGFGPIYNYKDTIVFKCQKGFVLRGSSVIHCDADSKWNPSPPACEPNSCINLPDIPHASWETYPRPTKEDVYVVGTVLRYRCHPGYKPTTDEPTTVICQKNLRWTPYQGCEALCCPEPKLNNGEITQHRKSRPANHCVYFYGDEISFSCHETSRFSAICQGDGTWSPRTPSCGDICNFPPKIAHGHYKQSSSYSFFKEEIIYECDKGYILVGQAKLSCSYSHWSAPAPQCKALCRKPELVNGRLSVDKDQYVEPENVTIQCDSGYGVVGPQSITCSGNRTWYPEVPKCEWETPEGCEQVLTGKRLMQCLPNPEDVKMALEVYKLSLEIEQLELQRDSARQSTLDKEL
T1 sequence (looked up) 2: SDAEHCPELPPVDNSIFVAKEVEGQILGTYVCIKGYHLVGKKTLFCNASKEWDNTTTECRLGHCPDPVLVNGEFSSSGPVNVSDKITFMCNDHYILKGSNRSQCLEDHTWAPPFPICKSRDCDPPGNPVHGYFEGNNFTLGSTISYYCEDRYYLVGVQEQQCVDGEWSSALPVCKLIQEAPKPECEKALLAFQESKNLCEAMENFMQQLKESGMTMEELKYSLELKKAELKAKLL
Experiment: cross-linking; TX-MS: 10 μg C4BP or 10 μg IgA Fc with 10 μg untagged M28 in 100 μl PBS, 37°C, DSS-H12/D12 at 0 to 2,000 μM for 60 min; cross-linked peptides by DDA-MS
Conditions: both partners purified

B1: M28 protein, recombinant, affinity tag removed by TEV protease (natural protein)
chain: AESPKSTETSANGADKLADAYNTLLTEHEKLRDEYYTLIDAKEEEPRYKALRGENQDLREKEGKYQDKIKKLEEKEKNLEKKSEDVERHYLKKLDQEHKEQEERQKNLEELERQSQREIDKRYQEQLQKQQQLETEKQISEASRKSLSRDLEASRAAKKDLEAEHQKLKEEKQISDASRQGLSRDLEASRAAKKDLEAEHQKLKEEKQISDASRQGLSRDLEASREAKKKVEADLAEANSKLQALEKLNKELEEGKKLSEKEKAELQARLEAEAKALKEQLAKQAEELAKLKGNQTPNAKVAPQANRSRSAMTQQKR
notes: M protein of S. pyogenes serotype M28, mature, without the signal peptide and the LPXTG cell wall-anchoring motif, aa 42 to 358; Used for SPR, TX-MS and HDX-MS; also called untagged M28; TEV-cleaved M28; source: E. coli Tuner(DE3), purified (HisTrap, TEV digestion, HisTrap, Superdex 200)
Does B1 bind?
Result: binds
